Values of other authors, collected in publication PMC10766771.

Test system: His154
Assay: other (pH dependence of the redox potential, electrochemistry)
Conditions: oxidized [2Fe-2S] cluster, isolated fragment

Q: Which pKa does the source give for “Rieske [2Fe-2S] iron-sulfur protein (cytochrome bc1-type), isolated soluble fragment (Thermus thermophilus)” here?
A: 7.8
